Where two headings read alike, the source gives them in different places.
What was measured:
PTHrP (1-34+Cys) = PTHrP (1-34+Cys) (human, C-terminal Cys coupled to sensor tip CM5 through PDEA (thiol coupling)); experiment: BIACORE (SPR), PTHrP (1-34+C) immobilised on CM5 through the C-terminal Cys, antibody as analyte
human PTHrP (1-34) [1] = target: T1, human PTHrP (1-34) (human); experiment: ELISA on plate-coated human PTHrP (1-34) (1 µg/ml); bound antibody detected with alkaline phosphatase-conjugated goat anti-human IgG; O.D. 405/620
T1 construct: Synthetic peptide (Peninsula; Peptide Research Institute), coated on ELISA plates at 1 µg/ml or used in solid phase RIA; also called human parathyroid hormone related protein (1-34)

human PTHrP (1-34) [2] = target: T1, human PTHrP (1-34); experiment: as above; remark: listed apart in the source
human PTHrP (1-34) [3] = target: T1, human PTHrP (1-34); experiment: as above; remark: listed apart in the source
human PTHrP (1-34) [4] = target: T1, human PTHrP (1-34); experiment: as above; remark: listed apart in the source
human PTHrP (1-34) [5] = target: T1, human PTHrP (1-34); experiment: as above; remark: listed apart in the source

B1: chimeric #23-57-137-1 antibody with human λ L chain C region (antibody, V domains shown)
VH: EVQLVESGGDLVKPGGSLKLSCAASGFTFSSYGMSWIRQTPDKRLEWVATISSGGSYTYYPDSVKGRFTISRDNAKNTLYLQMSSLKSEDTAMFYCARQTTMTYFAYWGQGTLVTVSA
VL: QLVLTQSSSASFSLGASAKLTCTLSSQHSTYTIEWYQQQPLKPPKYVMDLKQDGSHSTGDGIPDRFSGSSSGADRYLSISNIQPEDEAMYICGVGDTIKEQFVYVFGGGTKVTVLG
notes: It was expressed in COS-7 for ELISA and in CHO for BIACORE; also called chMBC; chH-chλ
B1 showed a Kd (PTHrP (1-34+Cys)) of 134 pM, a koff (PTHrP (1-34+Cys)) of 0.000166 s⁻¹ and a kon (PTHrP (1-34+Cys)) of 1.24e+06 M⁻¹ s⁻¹. B1: binds (human PTHrP (1-34) [1]).

B2: humanized #23-57-137-1 antibody, H chain version a, L chain version s (antibody, V domains shown)
VH: QVQLVESGGGVVQPGRSLRLSCAASGFTFSSYGMSWVRQAPGKGLEWVATISSGGSYTYYPDSVKGRFTISRDNSKNTLYLQMNSLRAEDTAVYYCARQTTMTYFAYWGQGTLVTVSS
VL: QLVLTQSPSASASLGASVKLTCTLSSQHSTYTIEWYQQQPEKGPKYVMDLKQDGSHSTGDGIPDRFSGSSSGAERYLTISSLQSEDEADYICGVGDTIKEQFVYVFGGGTKLTVLG
B2: binds (human PTHrP (1-34) [2]).

B3: human FR1,2/mouse FR3,4 hybrid antibody (L chain h/mMBC1L(λ), humanized H chain version a) (antibody, V domains shown)
VH: QVQLVESGGGVVQPGRSLRLSCAASGFTFSSYGMSWVRQAPGKGLEWVATISSGGSYTYYPDSVKGRFTISRDNSKNTLYLQMNSLRAEDTAVYYCARQTTMTYFAYWGQGTLVTVSS
VL: QLVLTQSPSASASLGASVKLTCTLSSQHSTYTIEWHQQQPEKGPRYLMKLKQDGSHSTGDGIPDRFSGSSSGADRYLSISNIQPEDEAMYICGVGDTIKEQFVYVFGGGTKVTVLG
notes: Human Cγ1 and human Cλ C regions; Expressed in COS-7; also called h/mMBC1Ld(λ)
B3: no binding (tested: about 340 ng/ml) (human PTHrP (1-34) [3]).

B4: human FR1/mouse FR2,3,4 hybrid antibody (L chain hmmMBC1L(λ), humanized H chain version a) (antibody, V domains shown)
VH: QVQLVESGGGVVQPGRSLRLSCAASGFTFSSYGMSWVRQAPGKGLEWVATISSGGSYTYYPDSVKGRFTISRDNSKNTLYLQMNSLRAEDTAVYYCARQTTMTYFAYWGQGTLVTVSS
VL: QLVLTQSPSASASLGASVKLTCTLSSQHSTYTIEWYQQQPLKPPKYVMDLKQDGSHSTGDGIPDRFSGSSSGADRYLSISNIQPEDEAMYICGVGDTIKEQFVYVFGGGTKVTVLG
notes: Human Cγ1 and human Cλ C regions; Expressed in COS-7
B4: binds (human PTHrP (1-34) [1]).

B5: humanized #23-57-137-1 antibody, H chain version a, L chain version l (antibody, V domains shown)
VH: QVQLVESGGGVVQPGRSLRLSCAASGFTFSSYGMSWVRQAPGKGLEWVATISSGGSYTYYPDSVKGRFTISRDNSKNTLYLQMNSLRAEDTAVYYCARQTTMTYFAYWGQGTLVTVSS
VL: QLVLTQSPSASASLGASVKLTCTLSSQHSTYTIEWYQQQPEKGPKYVMDLKQDGSHSTGDGIPDRFSGSSSGAERYLTISSLQSEDEADYYCGVGDTIKEQFVYVFGGGTKLTVLG
notes: as for B4
B5: binds (human PTHrP (1-34) [4]).

B6: humanized #23-57-137-1 antibody, H chain version a, L chain version o (antibody, V domains shown)
VH: QVQLVESGGGVVQPGRSLRLSCAASGFTFSSYGMSWVRQAPGKGLEWVATISSGGSYTYYPDSVKGRFTISRDNSKNTLYLQMNSLRAEDTAVYYCARQTTMTYFAYWGQGTLVTVSS
VL: QLVLTQSPSASASLGASVKLTCTLSSQHSTYTIEWYQQQPEKGPRYVMDLKQDGSHSTGDGIPDRFSGSSSGAERYLTISSLQSEDEADYYCGVGDTIKEQFVYVFGGGTKLTVLG
notes: as for B4
B6: binds (human PTHrP (1-34) [4]).

B7: humanized #23-57-137-1 antibody, H chain version a, L chain version r (antibody, V domains shown)
VH: QVQLVESGGGVVQPGRSLRLSCAASGFTFSSYGMSWVRQAPGKGLEWVATISSGGSYTYYPDSVKGRFTISRDNSKNTLYLQMNSLRAEDTAVYYCARQTTMTYFAYWGQGTLVTVSS
VL: QLVLTQSPSASASLGASVKLTCTLSSQHSTYTIEWYQQQPEKGPRYLMDLKQDGSHSTGDGIPDRFSGSSSGAERYLTISSLQSEDEADYICGVGDTIKEQFVYVFGGGTKLTVLG
B7: binds (human PTHrP (1-34) [2]).

B8: humanized #23-57-137-1 antibody, H chain version a, L chain version t (antibody, V domains shown)
VH: QVQLVESGGGVVQPGRSLRLSCAASGFTFSSYGMSWVRQAPGKGLEWVATISSGGSYTYYPDSVKGRFTISRDNSKNTLYLQMNSLRAEDTAVYYCARQTTMTYFAYWGQGTLVTVSS
VL: QLVLTQSPSASASLGASVKLTCTLSSQHSTYTIEWYQQQPEKGPRYVMDLKQDGSHSTGDGIPDRFSGSSSGAERYLTISSLQSEDEADYICGVGDTIKEQFVYVFGGGTKLTVLG
notes: as for B4
B8: binds (human PTHrP (1-34) [2]).

B9: mouse FR1,2/human FR3,4 hybrid antibody (L chain m/hMBC1Laλ, humanized H chain version a) (antibody, V domains shown)
VH: QVQLVESGGGVVQPGRSLRLSCAASGFTFSSYGMSWVRQAPGKGLEWVATISSGGSYTYYPDSVKGRFTISRDNSKNTLYLQMNSLRAEDTAVYYCARQTTMTYFAYWGQGTLVTVSS
VL: QLVLTQSSSASFSLGASAKLTCTLSSQHSTYTIEWYQQQPLKPPKYVMDLKQDGSHSTGDGIPDRFSGSSSGAERYLTISSLQSEDEADYYCGVGDTIKEQFVYVFGGGTKLTVLG
notes: as for B4
B9: binds (human PTHrP (1-34) [3]).

B10: mouse FR1,2/human FR3,4 hybrid antibody (L chain m/hMBC1Ldλ, humanized H chain version a) (antibody, V domains shown)
VH: QVQLVESGGGVVQPGRSLRLSCAASGFTFSSYGMSWVRQAPGKGLEWVATISSGGSYTYYPDSVKGRFTISRDNSKNTLYLQMNSLRAEDTAVYYCARQTTMTYFAYWGQGTLVTVSS
VL: QLVLTQSSSASFSLGASAKLTCTLSSQHSTYTIEWYQQQPLKPPKYVMDLKQDGSHSTGDGIPDRFSGSSSGAERYLTISSLQSEDEADYICGVGDTIKEQFVYVFGGGTKLTVLG
notes: as for B4
B10: binds (human PTHrP (1-34) [3]).

B11: humanized #23-57-137-1 antibody, H chain version a, L chain version m (antibody, V domains shown)
VH: QVQLVESGGGVVQPGRSLRLSCAASGFTFSSYGMSWVRQAPGKGLEWVATISSGGSYTYYPDSVKGRFTISRDNSKNTLYLQMNSLRAEDTAVYYCARQTTMTYFAYWGQGTLVTVSS
VL: QLVLTQSPSASASLGASVKLTCTLSSQHSTYTIEWYQQQPEKGPRYLMDLKQDGSHSTGDGIPDRFSGSSSGAERYLTISSLQSEDEADYYCGVGDTIKEQFVYVFGGGTKLTVLG
notes: Human Cγ1 and human Cλ C regions; Expressed in COS-7 for ELISA and in CHO for BIACORE; also called hMBCm
B11 was tested, and the Kd (PTHrP (1-34+Cys)) was 358 pM, the koff (PTHrP (1-34+Cys)) was 0.000316 s⁻¹ and the kon (PTHrP (1-34+Cys)) was 883000 M⁻¹ s⁻¹. B11: binds (human PTHrP (1-34) [4]).

B12: humanized #23-57-137-1 antibody, H chain version a, L chain version q (antibody, V domains shown)
VH: QVQLVESGGGVVQPGRSLRLSCAASGFTFSSYGMSWVRQAPGKGLEWVATISSGGSYTYYPDSVKGRFTISRDNSKNTLYLQMNSLRAEDTAVYYCARQTTMTYFAYWGQGTLVTVSS
VL: QLVLTQSPSASASLGASVKLTCTLSSQHSTYTIEWYQQQPEKGPKYLMDLKQDGSHSTGDGIPDRFSGSSSGAERYLTISSLQSEDEADYICGVGDTIKEQFVYVFGGGTKLTVLG
notes: Human Cγ1 and human Cλ C regions; Expressed in COS-7 for ELISA and in CHO for BIACORE; also called hMBCq
Work on B12 yielded a Kd (PTHrP (1-34+Cys)) of 225 pM, a koff (PTHrP (1-34+Cys)) of 0.000232 s⁻¹ and a kon (PTHrP (1-34+Cys)) of 1.03e+06 M⁻¹ s⁻¹. B12: binds (human PTHrP (1-34) [2]).

B13: mouse FR1/human FR2/mouse FR3,4 hybrid antibody (L chain mhmMBC1L(λ), humanized H chain version a) (antibody, V domains shown)
VH: QVQLVESGGGVVQPGRSLRLSCAASGFTFSSYGMSWVRQAPGKGLEWVATISSGGSYTYYPDSVKGRFTISRDNSKNTLYLQMNSLRAEDTAVYYCARQTTMTYFAYWGQGTLVTVSS
VL: QLVLTQSSSASFSLGASAKLTCTLSSQHSTYTIEWHQQQPEKGPRYLMKLKQDGSHSTGDGIPDRFSGSSSGADRYLSISNIQPEDEAMYICGVGDTIKEQFVYVFGGGTKVTVLG
notes: as for B4
B13: no binding (tested: about 250 ng/ml) (human PTHrP (1-34) [1]).

B14: hH / hLa (antibody, V domains shown)
VH: QVQLVESGGGVVQPGRSLRLSCAASGFTFSSYGMSWVRQAPGKGLEWVATISSGGSYTYYPDSVKGRFTISRDNSKNTLYLQMNSLRAEDTAVYYCARQTTMTYFAYWGQGTLVTVSS
VL: QLVLTQSPSASASLGASVKLTCTLSSQHSTYTIEWHQQQPEKGPRYLMKLKQDGSHSTGDGIPDRFSGSSSGAERYLTISSLQSEDEADYYCGVGDTIKEQFVYVFGGGTKLTVL
notes: copies: 2 + 2
B14: no binding (tested: about 390 ng/ml) (human PTHrP (1-34) [5]).

B15: hH / hLb (antibody, V domains shown)
VH: QVQLVESGGGVVQPGRSLRLSCAASGFTFSSYGMSWVRQAPGKGLEWVATISSGGSYTYYPDSVKGRFTISRDNSKNTLYLQMNSLRAEDTAVYYCARQTTMTYFAYWGQGTLVTVSS
VL: QLVLTQSPSASASLGASVKLTCTLSSQHSTYTIEWHQQQPEKPPRYLMDLKQDGSHSTGDGIPDRFSGSSSGAERYLTISSLQSEDEADYYCGVGDTIKEQFVYVFGGGTKLTVL
notes: copies: 2 + 2
B15: no binding (tested: about 370 ng/ml) (human PTHrP (1-34) [5]).

B16: hH / hLc (antibody, V domains shown)
VH: QVQLVESGGGVVQPGRSLRLSCAASGFTFSSYGMSWVRQAPGKGLEWVATISSGGSYTYYPDSVKGRFTISRDNSKNTLYLQMNSLRAEDTAVYYCARQTTMTYFAYWGQGTLVTVSS
VL: QLVLTQSPSASASLGASVKLTCTLSSQHSTYTIEWHQQQPEKGPRYLMKLKQDGSHSTGDGIPDRFSGSSSGAERYLTISSLQPEDEADYYCGVGDTIKEQFVYVFGGGTKLTVL
notes: copies: 2 + 2
B16: no binding (tested: about 460 ng/ml) (human PTHrP (1-34) [5]).

B17: hH / hLd (antibody, V domains shown)
VH: QVQLVESGGGVVQPGRSLRLSCAASGFTFSSYGMSWVRQAPGKGLEWVATISSGGSYTYYPDSVKGRFTISRDNSKNTLYLQMNSLRAEDTAVYYCARQTTMTYFAYWGQGTLVTVSS
VL: QLVLTQSPSASASLGASVKLTCTLSSQHSTYTIEWHQQQPEKGPRYLMKLKQDGSHSTGDGIPDRFSGSSSGAERYLTISSLQSEDEADYICGVGDTIKEQFVYVFGGGTKLTVL
notes: copies: 2 + 2
B17: no binding (tested: about 510 ng/ml) (human PTHrP (1-34) [5]).

B18: hH / hLn (antibody, V domains shown)
VH: QVQLVESGGGVVQPGRSLRLSCAASGFTFSSYGMSWVRQAPGKGLEWVATISSGGSYTYYPDSVKGRFTISRDNSKNTLYLQMNSLRAEDTAVYYCARQTTMTYFAYWGQGTLVTVSS
VL: QLVLTQSPSASASLGASVKLTCTLSSQHSTYTIEWYQQQPEKGPRYVMKLKQDGSHSTGDGIPDRFSGSSSGAERYLTISSLQSEDEADYYCGVGDTIKEQFVYVFGGGTKLTVL
notes: copies: 2 + 2
B18: no binding (tested: about 1650 ng/ml) (human PTHrP (1-34) [4]).
